Assay results taken from the supplement of paper PMC10065799, “High-throughput profiling of sequence recognition by tyrosine kinases and SH2 domains using bacterial peptide display” (eLife, 2023).

How the values were obtained:
SHP2-C SH2 = assay: SH2 binding enrichment of the phosphorylated peptide, bacterial display (enrichment ratio); higher = better substrate or ligand; peptides without Tyr show the background
c-Src SH2 = assay: as above
Grb2 SH2 = Grb2 SH2 (UniProt P62993); assay: as above
MERTK = MERTK (UniProt Q12866); assay: phosphorylation enrichment, bacterial display (enrichment ratio); higher = better substrate or ligand; peptides without Tyr show the background
AncSZ = assay: as above
Fyn = Fyn (UniProt P06241); assay: as above
c-Abl (mouse) = assay: as above
EPHB1 = EPHB1 (UniProt P54762); assay: as above
EPHB2 = EPHB2 (UniProt P29323); assay: as above
Fer (mouse) = assay: as above
FGFR1 = FGFR1 (UniProt P11362); assay: as above
c-Src = assay: as above
FGFR3 = FGFR3 (UniProt P22607); assay: as above
Fes = Fes (UniProt P07332); assay: as above
Hck = Hck (UniProt P08631); assay: as above
Jak2 = Jak2 (UniProt O60674); assay: as above
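Throughout, for SH2 binding enrichment of the phosphorylated peptide, bacterial display: peptide library displayed on the E. coli surface as eCPX fusions, selected cells deep-sequenced, score is each peptide's frequency after selection divided by its frequency in the input.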
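Throughout, for phosphorylation enrichment, bacterial display: 11-residue human phosphosite peptides and single-mutation variants displayed on the E. coli surface, counted by deep sequencing, each peptide's frequency after selection divided by its frequency in the unselected input library; frequency after pTyr selection over input frequency; kinase dosed for 20-30% of maximal phosphorylation in three min.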

FGFR1, sequence (P11362 whole entry, looked up): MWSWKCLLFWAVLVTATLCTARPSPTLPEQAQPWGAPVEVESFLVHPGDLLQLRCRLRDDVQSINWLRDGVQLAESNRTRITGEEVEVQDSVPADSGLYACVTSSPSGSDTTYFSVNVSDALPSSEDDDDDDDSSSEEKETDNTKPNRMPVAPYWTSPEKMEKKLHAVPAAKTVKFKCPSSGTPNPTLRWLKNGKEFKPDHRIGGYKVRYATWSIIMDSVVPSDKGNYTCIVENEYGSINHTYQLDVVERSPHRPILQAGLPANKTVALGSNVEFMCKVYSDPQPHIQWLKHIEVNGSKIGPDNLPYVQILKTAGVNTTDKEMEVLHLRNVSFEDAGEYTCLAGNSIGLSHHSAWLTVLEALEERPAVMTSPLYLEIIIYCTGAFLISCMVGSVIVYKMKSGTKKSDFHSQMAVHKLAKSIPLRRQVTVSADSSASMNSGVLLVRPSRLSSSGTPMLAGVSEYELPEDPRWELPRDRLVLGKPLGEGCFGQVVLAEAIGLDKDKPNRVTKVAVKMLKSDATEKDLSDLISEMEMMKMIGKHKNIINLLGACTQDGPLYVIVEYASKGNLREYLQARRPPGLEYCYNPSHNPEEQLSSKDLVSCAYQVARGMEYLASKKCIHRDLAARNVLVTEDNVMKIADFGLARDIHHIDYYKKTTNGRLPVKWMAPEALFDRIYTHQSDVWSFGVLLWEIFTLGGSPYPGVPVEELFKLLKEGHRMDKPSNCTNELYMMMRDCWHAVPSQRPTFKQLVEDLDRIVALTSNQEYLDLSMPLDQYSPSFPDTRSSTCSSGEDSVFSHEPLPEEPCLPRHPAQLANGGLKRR
Fes, sequence (P07332 whole entry, looked up): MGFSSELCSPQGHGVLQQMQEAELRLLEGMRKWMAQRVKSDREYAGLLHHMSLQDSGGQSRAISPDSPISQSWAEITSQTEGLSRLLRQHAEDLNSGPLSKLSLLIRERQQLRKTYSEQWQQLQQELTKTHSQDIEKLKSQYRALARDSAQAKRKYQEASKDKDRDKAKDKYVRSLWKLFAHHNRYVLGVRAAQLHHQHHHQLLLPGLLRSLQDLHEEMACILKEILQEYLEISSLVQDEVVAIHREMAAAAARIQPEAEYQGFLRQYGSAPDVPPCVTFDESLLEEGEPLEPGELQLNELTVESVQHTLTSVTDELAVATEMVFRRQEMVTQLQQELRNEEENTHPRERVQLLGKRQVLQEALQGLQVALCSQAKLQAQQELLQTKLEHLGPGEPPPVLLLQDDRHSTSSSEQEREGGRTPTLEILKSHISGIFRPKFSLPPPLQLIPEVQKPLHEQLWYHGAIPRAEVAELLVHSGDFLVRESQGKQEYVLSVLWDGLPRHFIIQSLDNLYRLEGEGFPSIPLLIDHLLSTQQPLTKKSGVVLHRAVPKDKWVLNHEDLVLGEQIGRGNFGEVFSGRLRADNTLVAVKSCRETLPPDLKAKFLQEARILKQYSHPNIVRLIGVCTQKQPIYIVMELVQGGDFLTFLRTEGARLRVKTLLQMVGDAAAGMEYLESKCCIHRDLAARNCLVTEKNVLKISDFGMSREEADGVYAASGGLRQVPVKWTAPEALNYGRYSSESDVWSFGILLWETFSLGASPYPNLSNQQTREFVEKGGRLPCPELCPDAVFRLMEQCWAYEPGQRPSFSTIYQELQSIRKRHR
FGFR3, sequence (P22607 whole entry, looked up): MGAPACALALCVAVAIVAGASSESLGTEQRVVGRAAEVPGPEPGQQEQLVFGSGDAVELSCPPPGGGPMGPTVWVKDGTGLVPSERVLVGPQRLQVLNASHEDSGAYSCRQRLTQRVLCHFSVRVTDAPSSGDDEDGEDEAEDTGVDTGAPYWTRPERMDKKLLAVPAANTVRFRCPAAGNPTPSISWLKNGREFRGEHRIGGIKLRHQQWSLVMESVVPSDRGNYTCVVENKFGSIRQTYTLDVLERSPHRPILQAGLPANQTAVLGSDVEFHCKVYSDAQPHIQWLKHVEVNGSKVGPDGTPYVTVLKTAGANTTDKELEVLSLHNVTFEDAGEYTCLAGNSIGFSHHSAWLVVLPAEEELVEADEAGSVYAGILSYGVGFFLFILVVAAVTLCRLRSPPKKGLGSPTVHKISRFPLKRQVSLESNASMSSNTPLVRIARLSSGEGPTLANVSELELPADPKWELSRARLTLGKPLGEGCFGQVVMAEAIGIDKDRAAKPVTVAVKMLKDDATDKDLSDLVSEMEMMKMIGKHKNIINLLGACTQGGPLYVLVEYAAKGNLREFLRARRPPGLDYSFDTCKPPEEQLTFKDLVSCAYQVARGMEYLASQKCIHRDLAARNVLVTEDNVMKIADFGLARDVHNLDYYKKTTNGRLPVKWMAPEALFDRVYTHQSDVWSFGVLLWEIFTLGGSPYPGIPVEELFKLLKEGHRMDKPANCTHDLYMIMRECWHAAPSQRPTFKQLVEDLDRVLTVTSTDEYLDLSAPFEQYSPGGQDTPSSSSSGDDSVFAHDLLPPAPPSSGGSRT
Hck, sequence (P08631 whole entry, looked up): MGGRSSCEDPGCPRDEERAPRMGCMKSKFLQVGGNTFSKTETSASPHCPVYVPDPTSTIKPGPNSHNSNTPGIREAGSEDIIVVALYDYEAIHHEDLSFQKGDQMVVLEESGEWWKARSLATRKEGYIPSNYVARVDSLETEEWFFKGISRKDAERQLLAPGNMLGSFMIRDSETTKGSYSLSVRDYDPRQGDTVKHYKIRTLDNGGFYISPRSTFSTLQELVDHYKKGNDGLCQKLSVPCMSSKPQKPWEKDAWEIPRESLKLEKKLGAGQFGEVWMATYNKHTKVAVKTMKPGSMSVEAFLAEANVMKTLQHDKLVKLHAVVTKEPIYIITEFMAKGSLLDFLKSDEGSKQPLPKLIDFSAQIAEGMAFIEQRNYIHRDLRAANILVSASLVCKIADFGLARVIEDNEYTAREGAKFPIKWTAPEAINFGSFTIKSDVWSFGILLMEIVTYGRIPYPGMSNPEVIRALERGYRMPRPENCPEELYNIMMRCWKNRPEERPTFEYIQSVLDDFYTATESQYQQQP
EPHB2, sequence (P29323 whole entry, looked up): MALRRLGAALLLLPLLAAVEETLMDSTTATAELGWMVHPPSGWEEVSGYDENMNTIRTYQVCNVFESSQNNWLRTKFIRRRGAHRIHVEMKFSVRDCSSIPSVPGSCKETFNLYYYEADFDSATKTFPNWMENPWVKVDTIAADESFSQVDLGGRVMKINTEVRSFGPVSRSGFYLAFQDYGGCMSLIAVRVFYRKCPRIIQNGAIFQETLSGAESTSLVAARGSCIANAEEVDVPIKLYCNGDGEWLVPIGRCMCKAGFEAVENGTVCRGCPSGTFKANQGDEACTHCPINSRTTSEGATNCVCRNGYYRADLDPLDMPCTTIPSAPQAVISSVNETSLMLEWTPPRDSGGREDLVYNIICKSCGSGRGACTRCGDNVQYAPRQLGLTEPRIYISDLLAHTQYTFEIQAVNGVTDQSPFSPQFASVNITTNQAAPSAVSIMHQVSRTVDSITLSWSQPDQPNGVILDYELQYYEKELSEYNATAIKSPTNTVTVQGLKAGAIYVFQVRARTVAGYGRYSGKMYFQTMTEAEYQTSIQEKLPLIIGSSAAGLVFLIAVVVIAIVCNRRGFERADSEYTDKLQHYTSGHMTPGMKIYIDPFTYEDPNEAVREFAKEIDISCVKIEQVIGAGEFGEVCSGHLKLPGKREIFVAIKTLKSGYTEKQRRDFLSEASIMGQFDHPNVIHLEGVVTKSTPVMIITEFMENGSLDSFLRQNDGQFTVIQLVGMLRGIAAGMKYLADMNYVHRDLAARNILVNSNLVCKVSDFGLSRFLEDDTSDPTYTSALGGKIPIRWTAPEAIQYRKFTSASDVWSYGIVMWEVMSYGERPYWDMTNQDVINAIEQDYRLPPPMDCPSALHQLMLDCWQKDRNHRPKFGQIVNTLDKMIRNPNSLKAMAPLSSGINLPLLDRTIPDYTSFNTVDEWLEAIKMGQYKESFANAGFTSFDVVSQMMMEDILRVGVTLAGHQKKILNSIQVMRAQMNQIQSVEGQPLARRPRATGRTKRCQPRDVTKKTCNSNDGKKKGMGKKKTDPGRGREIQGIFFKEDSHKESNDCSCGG
EPHB1, sequence (P54762 whole entry, looked up): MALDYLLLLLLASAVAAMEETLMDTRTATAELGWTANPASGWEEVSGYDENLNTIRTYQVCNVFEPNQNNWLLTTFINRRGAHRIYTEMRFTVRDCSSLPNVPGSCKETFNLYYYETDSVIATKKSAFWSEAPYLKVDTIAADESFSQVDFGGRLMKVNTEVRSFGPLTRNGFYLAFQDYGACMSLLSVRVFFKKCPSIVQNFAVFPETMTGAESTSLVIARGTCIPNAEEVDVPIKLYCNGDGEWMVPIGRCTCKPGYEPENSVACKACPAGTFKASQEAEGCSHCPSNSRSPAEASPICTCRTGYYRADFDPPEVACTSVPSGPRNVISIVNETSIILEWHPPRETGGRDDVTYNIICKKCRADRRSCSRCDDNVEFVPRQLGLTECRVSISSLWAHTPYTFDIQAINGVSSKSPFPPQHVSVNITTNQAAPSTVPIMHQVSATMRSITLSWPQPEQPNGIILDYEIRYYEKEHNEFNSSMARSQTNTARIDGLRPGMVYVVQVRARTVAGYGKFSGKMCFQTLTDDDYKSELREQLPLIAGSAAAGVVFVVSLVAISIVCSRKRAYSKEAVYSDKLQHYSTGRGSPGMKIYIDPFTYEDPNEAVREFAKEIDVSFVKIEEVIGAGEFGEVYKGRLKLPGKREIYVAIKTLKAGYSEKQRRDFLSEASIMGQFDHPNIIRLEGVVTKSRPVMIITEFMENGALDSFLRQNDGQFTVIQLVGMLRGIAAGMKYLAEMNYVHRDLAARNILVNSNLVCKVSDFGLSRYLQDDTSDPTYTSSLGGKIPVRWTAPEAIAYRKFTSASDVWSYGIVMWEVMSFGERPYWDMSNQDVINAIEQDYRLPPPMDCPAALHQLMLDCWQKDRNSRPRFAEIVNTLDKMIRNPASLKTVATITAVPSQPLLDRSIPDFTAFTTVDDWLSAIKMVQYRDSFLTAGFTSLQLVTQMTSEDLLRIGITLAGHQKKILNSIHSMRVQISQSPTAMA

SH2 binding enrichment (SHP2-C SH2)	SH2 binding enrichment (c-Src SH2)	SH2 binding enrichment (Grb2 SH2)	Sequence	phosphorylation enrichment (MERTK)	phosphorylation enrichment (AncSZ)	phosphorylation enrichment (Fyn)	phosphorylation enrichment (c-Abl (mouse))	phosphorylation enrichment (EPHB1)	phosphorylation enrichment (EPHB2)	phosphorylation enrichment (Fer (mouse))	phosphorylation enrichment (FGFR1)	phosphorylation enrichment (c-Src)	phosphorylation enrichment (FGFR3)	phosphorylation enrichment (Fes)	phosphorylation enrichment (Hck)	phosphorylation enrichment (Jak2)
2.02	1.93	2.01	CTTIHFNFMCN [TP53_Y234_Y234F_YF]	0.525	1.07	0.484	0.824	0.604	0.656	0.569	0.614	0.507	0.83	1.31	0.582	1.33
1.15	0.412	0.944	RISPEYKQNEI [GJB1_Y243_L239I]	0.598	1.15	0.922	1.06	0.998	0.73	0.687	0.866	0.604	0.836	1.07	0.607	0.983
0.403	0.354	0.724	VGTKRYVAPEV [ACVRL1_Y375_M376V]	0.422	0.61	0.451	0.544	0.309	0.444	0.474	0.332	0.458	0.464	0.658	0.351	0.477
0.544	0.614	0.968	ADFPDYKFRPR [SOX11_Y116_YF]	0.413	1.07	0.472	0.403	0.378	0.422	0.369	0.455	0.357	0.58	0.697	0.501	0.728
0.721	0.494	0.891	TALFIYIRPKA [OR10C1_Y258]	0.388	1.23	0.55	0.624	0.406	0.697	0.508	0.556	0.304	0.712	1.22	0.523	0.945
0.623	22.5	0.666	EVRAQYEEIAQ [KRT76_Y361]	0.404	1.19	0.526	0.92	0.697	0.641	0.977	0.611	0.388	0.98	1.22	0.614	1.07
1.11	1.03	1.1	GYKVRYATGSI [FGFR1_Y210_W213G]	0.32	0.499	0.401	0.478	0.537	0.479	0.34	0.416	0.398	0.423	0.625	0.434	0.456
0.589	0.815	0.736	AMCVCYDGVEV [ADAMTSL2_Y594_R593C]	0.41	1.42	0.68	0.816	0.585	0.589	1.41	0.511	1.02	0.882	1.31	0.655	1.03
0.829	0.461	0.959	TDLAYYLVCKG [ASL_Y376_R379C]	0.79	1.46	0.689	0.903	0.883	0.66	0.581	2.39	0.825	2.33	1.57	0.75	1.74
0.836	0.533	1	TLSGIYQFSIA [FOXL2_Y81_I84S_YF]	6	1.31	5.53	1.27	1.63	1.05	6.02	0.852	5.19	0.952	1.04	3.82	0.919
0.624	0.999	0.779	GRRNTYYASIA [ACADM_Y352]	0.774	0.653	0.532	0.572	0.35	0.477	0.414	0.45	0.638	0.454	0.849	0.56	0.735
0.523	0.526	0.783	KNEVFYQCPDQ [FBXO3_Y223]	3.49	3.2	1.03	7.94	1.04	2.03	6.47	1.26	0.985	1.49	1.55	1.69	0.941
0.598	0.445	0.893	INNIDYFKKTT [FGFR2_Y656_YF]	0.37	0.768	0.409	0.373	0.46	0.415	0.36	0.567	0.5	0.64	0.648	0.567	0.605
0.855	0.408	0.693	KKARAYGPGIE [FLNA_Y287]	0.399	0.576	0.357	0.468	0.328	0.335	0.38	0.323	0.392	0.343	0.446	0.405	0.418
0.617	0.488	0.83	EDEGLYTVRVP [MYOM3_Y343_M344T]	1.84	1.64	3.52	0.737	0.766	0.692	1.38	0.633	3.4	0.939	1.24	4.08	1.04
0.856	1.2	1.07	GLIPAYHRVIM [NMNAT1_Y64]	0.408	0.881	0.558	0.662	0.571	0.504	0.502	0.572	0.414	0.612	0.963	0.543	1.16
